Measured values reported in publication PMC6002859.

Biological target: Plk1 (UniProt P53350)
Test: Myc-PP6R2 IP, Plk1 Western blot
Details: reference: wild type; sites S771

PP6R2 (SAPS2) (from UniProt O75170) S771A (PBD2 mutant)
binding against the reference: lost
